# Laboratory results published in US8993725B2, “Notch-based fusion proteins and uses thereof” (The Trustees of Columbia University in the City of New York, priority 2004, dated 2015).
# Entries after “also recorded” stand apart in the source; their conditions may differ.
# Tests used:
# Type in all cases: cell-based, Human
# MMP9 mRNA = test: RT-PCR analysis of MMP9 expression in Ad-VEGF-HUVEC
# Procedure: (§1) FIGS. 24A-B show gelatin zymography analysis of MMP-9 and MMP-2 activity stimulated by VEGF in HUVEC. […] Transduced HUVEC were cultured on fibrin gel on the indicated day (i.e. D2, D4, D6, D8). Similar results were also obtained by using collagen gel, although induction of MMP-9 was stronger on fibrin gel than collagen gel (data not shown). […] HUVEC were transduced with Ad-N1ECDFc at the indicated doses and condition medium was collected from HUVEC cultured on collagen gel at day 4. FIGS. 24C-D show up-regulation of MMP-9 and MT1-MMP with Notch signaling. HUVEC were transduced with either Ad-LacZ or Ad-N1IC at 40 MOI. Numbers show PCR cycles. […] HUVEC were transduced with Ad-VEGF in the absence or presence of co-transduction of Ad-N1ECDFc at 40 MOI each. Ad-LacZ was co-transduced to make the same total amount of adenovirus at 80 MOI.
# (§2) Requisition of MMPs for angiogenic sprouting has been established by synthetic MMP inhibitors (16). GM6001 is one broad inhibitor against MMPs including MMP2, MMP9 and MT1-MMP (18).
# HUVEC = HUVEC proliferation (CCK-8 kit); conditions: complete medium, 4 days
# Procedure: These Figures show proliferation of Ad-VEGF165-transduced HUVEC. HUVEC were transduced with Ad-VEGF165 at the indicated dosages. Ad-LacZ was also co-infected to make the same total amount of adenovirus at a MOI of 40 pfu/cell. HUVEC were suspended in SFM supplemented with 1% FBS and then plated at 1×10^4 cells/well in 24-well multi-well plates with 0.4 ml of medium. After 4 days, cell numbers were determined using the CCK-8 kit and the results are indicated as the ratio of cell numbers determined to the number of control cells, which were transduced with Ad-GFP at a MOI of 40 pfu/cell. […] Ad-VEGF-transduced HUVEC were treated with SU5416 at the indicated dosages.
# These Figures show the effect of alteration of Notch signaling on cell proliferation. The cells were transduced with the indicated adenoviruses. Ad-GFP was also co-infected to make the same total amount of adenovirus at a MOI of 60 pfu/cell. After 4 days, cell numbers were determined using the CCK-8 kit and results are indicated as the ratio of cell numbers determined to the number of control cells, which were transduced with AD-GFP at MOI of 60 pfu/cell. […] Transduced HUVEC were suspended in complete medium and then plated at 1×10^4 cells/well in 24-well multiwell plates with 0.4 ml of indicated medium (□: Ad-N1IC; ▪: Ad-N1ECDFc). […]
# MMP2 = test: Gelatin zymography of conditioned medium of transduced HUVEC, MMP-2; conditions: co-transduction with Ad-VEGF; collagen gel, day 4
# Procedure: as §1, §2
# MT1-MMP mRNA = test: RT-PCR analysis of MT1-MMP expression in Ad-VEGF-HUVEC
# Procedure: as §1, §2
# Ad-VEGF-infected HUVEC = test: VEGF-induced budding (sprouting assay) of Ad-VEGF-HUVEC on collagen gel; conditions: for Inhibition of VEGF-induced HUVEC budding: co-infection with Ad-VEGF; for Inhibition of VEGF-induced HUVEC budding / Effect of fusion protein adenovirus alone on HUVEC morphology / bud formation: collagen gel; for Effect of fusion protein adenovirus alone on HUVEC morphology / bud formation: without Ad-VEGF
# Procedure: For making collagen gels, an ice-cold solution of porcine type I collagen (Nitta gelatin, Tokyo, Japan) was mixed with 10×RPMI1640 medium and neutralization buffer at the ratio of 8:1:1. 400 μl aliquots of collagen gel were then added to 24-well plates and allowed to gel for at least 1 hour at 37° C. Following adenoviral infection (above), HUVEC was harvested and plated at 1.3×10^5 cells per well onto the top of the collagen gel in 24-well plates in 0.8 ml of EGM2 medium. HUVEC became nearly confluent 48 hours after plating. After seeding, medium was changed every 2 days for 1 week. Sprouting was observed and photographs taken after 8 days with an Olympus digital camera mounted to a microscope. For quantification of the number of sprouts, 5 fields per each well were randomly selected and sprouting was counted under microscopy in a blind manner by two investigators.
# HUVEC (Human Umbilical Vein Endothelial cells) growth are dependent on VEGF (FIGS. 26A and 26B) and differentiation-related biological responses, such as sprouting, and can be evaluated at an early stage (7). At first, we examined whether adenovirally transduced VEGF induced both Notch and Notch ligand expression in HUVEC cultured with complete medium containing bFGF (FIG. 22A), as reported (5). […] Transduced-VEGF also activated Notch signaling in a dose-dependent manner by measuring CSL-luciferase reporter activity (FIG. 22B), which was transactivated with Notch signaling (8). Notch signaling was activated at a higher dosage of Ad-VEGF, compared to proliferation (FIG. 26A). […] Since Notch mutants lacking both transmembrane and cytoplasmic domains functioned as dominant negative inhibitors against Notch signaling (9), we made a Notch-based fusion protein or decoy (N1ECDFc) to inhibit Notch signaling (FIG. 22D). […] Then, we examined whether N1ECDFc inhibited activation of Notch signaling by transduced VEGF in HUVEC (FIG. 22G). […] Gerhardt et al. reported that VEGF controlled angiogenesis in the early postnatal retina by guiding filopodia extension at the tips of the vascular sprouts (10). During angiogenic sprouting, the formation of a specialized endothelial cell making filopodia projections among quiescent endothelial cells, might be one of the early events. Here we mean formation of a single endothelial cell making filopodia protrusions as budding. Budding of the primary endothelial cells is induced by cultivating them 3-dimensionally on either fibrin or collagen gel (11). In the case where Ad-VEGF-HUVEC were cultured on collagen gel with complete medium, transduced-HUVEC made filopodia extensions into the collagen gel for 5 days (FIG. 22H) and the number of buds was increased in a dose-dependent manner (FIG. 27A). […] Since both VEGF and Notch signaling induce HUVEC budding, we examined whether N1ECDFc inhibited VEGF-induced HUVEC budding (FIG. 22H-I).
# [1] = Ad-LacZ infected HUVEC, data not shown
# [2] = co-transduction with Ad-VEGF, 40 MOI each
molecule,measurement,setting,value
"N1ECDFc: Notch-based fusion protein or decoy: extracellular domain of Notch1 containing the EGF-repeats fused to the Fc portion of an antibody (protein, left off: a dimerising Fc or GST, Notch-based fusion protein or decoy: extracellular domain of Notch1 containing the EGF-repeats fused to the Fc portion of an antibody) ARGLRCSQPSGTCLNGGRCEVANGTEACVCSGAFVGQRCQDPSPCLSTPCKNAGTCYVVDHGGIVDYACSCPLGFSGPLCLTPLANACLANPCRNGGTCDLLTLTEYKCRCPPGWSGKSCQQADPCASNPCANGGQCLPFESSYICGCPPGFHGPTCRQDVNECSQNPGLCRHGGTCHNEIGSYRCACRATHTGPHCELPYVPCSPSPCQNGGTCRPTGDTTHECACLPGFAGQNCEENVDDCPGNNCKNGGACVDGVNTYNCRCPPEWTGQYCTEDVDECQLMPNACQNAGTCHNSHGGYNCVCVNGWTGEDCSDNIDDCASAACFQGATCHDRVASFYCECPHGRTGLLCHLNDACISNPCNEGSNCDTNPVNGKAICTCPRGYTGPACSQDVDECALGANPCEHAGKCLNTLGSFECQCLQGYTGPRCEIDVNECISNPCQNDATCLDQIGEFQCICMPGYEGVYCEINTDECASSPCLHNGRCVDKINEFLCQCPKGFSGHLCQYDVDECASTPCKNGAKCLDGPNTYTCVCTEGYTGTHCEVDIDECDPDPCHIGLCKDGVATFTCLCQPGYTGHHCETNINECHSQPCRHGGTCQDRDNYYLCLCLKGTTGPNCEINLDDCASNPCDSGTCLDKIDGYECACEPGYTGSMCNVNIDECAGSPCHNGGTCEDGIAGFTCRCPEGYHDPTCLSEVNECNSNPCIHGACRDGLNGYKCDCAPGWSGTNCDINNNECESNPCVNGGTCKDMTSGYVCTCREGFSGPNCQTNINECASNPCLNQGTCIDDVAGYKCNCPLPYTGATCEVVLAPCATSPCKNSGVCKESEDYESFSCVCPTGWQGQTCEIDINECVKSPCRHGASCQNTNGSYRCLCQAGYTGRNCESDIDDCRPNPCHNGGSCTDGVNAAFCDCLPGFQGAFCEEDINECATNPCQNGANCTDCVDSYTCTCPTGFNGIHCENNTPDCTESSCFNGGTCVDGINSFTCLCPPGFTGSYCQYDVNECDSRPCLHGGTCQDSYGTYKCTCPQGYTGLNCQNLVRWCDSAPCKNGGKCWQTNTQYHCECRSGWTGFNCDVLSVSCEVAAQKRGIDVTLLCQHGGLCVDEEDKHYCHCQAGYTGSYCEDEVDECSPNPCQNGATCTDYLGGFSCKCVAGYHGSNCSEEINECLSQPCQNGGTCIDLTNTYKCSCPRGTQGVHCEINVDDCHPPLDPASRSPKCFNNGTCVDQVGGYTCTCPPGFVGERCEGDVNECLSNPCDPRGTQNCVQRVNDFHCECRAGHTGRRCESVINGCRGKPCRNGGVCAVASNTARGFICRCPARFEGATCENDARTCGSLRCLNGGTCISGPRSPTCLCLGSFTGPECQFPASSPCVGSNPCYNQGTCEPTSESPFYRCLCPAKFNGLLCHILDYSFTDLGPG","Expression of MMP9, fusion protein adenovirus alone",MMP9 mRNA; [1],did not affect expression of either MMP9 or MT1-MMP
same,VEGF-induced up-regulation of MMP9 mRNA,MMP9 mRNA; [2],this induction was inhibited
same,Proliferation of transduced HUVEC,HUVEC,did not clearly alter proliferation of HUVEC
same,VEGF-stimulated activation of MMP2 (gelatin zymography),MMP2,inhibition
same,"Expression of MT1-MMP, fusion protein adenovirus alone",MT1-MMP mRNA; [1],did not affect expression of either MMP9 or MT1-MMP
same,VEGF-induced up-regulation of MT1-MMP mRNA,MT1-MMP mRNA; [2],this induction was inhibited
same,Inhibition of VEGF-induced HUVEC budding,Ad-VEGF-infected HUVEC,clearly inhibited
same,Inhibition of VEGF-induced HUVEC budding,Ad-VEGF-infected HUVEC; listed as Ad-N1ECDFc,clearly inhibited; also recorded: inhibition of budding
same,Inhibition of VEGF-induced HUVEC budding,Ad-VEGF-infected HUVEC; listed as Notch fusion protein,clearly inhibited; also recorded: could inhibit VEGF-induced budding
same,Cell number in VEGF-induced HUVEC budding assay,Ad-VEGF-infected HUVEC; co-transduction with Ad-VEGF,without affecting cell number
same,Effect of fusion protein adenovirus alone on HUVEC morphology / bud formation,Ad-VEGF-infected HUVEC; listed as Ad-N1ECDFc,Neither Ad-LacZ or Ad-N1ECDFc-transduced HUVEC formed buds
same,Effect of fusion protein adenovirus alone on HUVEC morphology / bud formation,Ad-VEGF-infected HUVEC; listed as Ad-Notch fusion protein,had less effect on morphology
same,Effect of fusion protein adenovirus alone on HUVEC morphology / bud formation,Ad-VEGF-infected HUVEC; listed as Ad-Notch-based fusion protein,had less effect on morphology
